Experimental data reported in patent US20070110756A1, “Method for modulating P53 activity via methylation” (priority 2005, published 2007).

B1: 5′-gat ccg cac ctg gac gat gac gga tta cct tcc tgt caG TAATCCGTCATCGTCCAGGTG Ctt ttt g-3′ (nucleic acid)
chain: GATCCGCACCTGGACGATGACGGATTACCTTCCTGTCAGTAATCCGTCATCGTCCAGGTGCTTTTTG
modifications: expressed or natural sequence
notes: stem-loop siRNA targeting SET9, expressed from lentiviral pLSL-GFP vector

Key:
[1] = system: methylated Lys372-p53 in 293F cells; experiment: immunoprecipitation with anti-p53-Lys372me and p53 western blot in 293F cells; type: cell-based; details: Adr-treated vs untreated
Experimental: The in vivo methylation of p53 at lysine 372 under conditions in which the intracellular concentration of Set9 was unaltered was also determined. 293F cells were treated with adriamycine (Adr), an agent that induces DNA damage resulting in the activation of a p53-responsive pathway. Cell extracts prepared from untreated and Adr-treated cells were then compared for total amounts of p53 protein using monoclonal p53 antibody. […] Both extracts were also subjected to immunoprecipitation with anti-p53-Lys372me antibodies followed by western blot analysis with p53-specific antibody.

[2] = system: methylated p53 bound to the p21 promoter in U2OS cells; experiment: ChIP assay of methylated p53 at the p21 promoter; type: cell-based; details: 0.5 μM of Adr, time course
Experimental: U2OS and USOS Set9 siRNA cells were treated with 0.5 μM of Adr and collected at the indicated time points for a CHIP assay performed using anti-p53-Lys372me antibody. The amounts of precipitated p21 promoter were determined by quantitative RT-PCR.
It was observed that p53 methylation likely precedes acetylation. Therefore, it was expected that p53 methylation must occur at very early times after DNA damage. […] At the indicated time periods, cells were harvested, and DNA-protein complexes were cross-linked and subjected to chromatin immunoprecipitation (ChIP) analysis, initially using anti-p53-Lys372me antibodies. To increase the specificity of ChIP, the anti-p53-Lys372me immunoprecipitates were eluted from the beads with 1% SDS, diluted with immunoprecipitation buffer and then subjected to a second round of immunoprecipitation using anti-p53 antibody.
ChIP assay on U2OS and U2OS cells expressing siRNA-Set9 was performed using established methods (Barlev, et al. (2001) supra). Briefly, cells were cross-linked with 1% formaldehyde, neutralized with 0.125 M glycine and harvested by scraping. The chromatin fraction was prepared by incubating the cells in lysis buffer (10 mM Tris pH 8.0, 200 mM NaCl, 10 mM EDTA, 0.5 mM EGTA, 1 mM PMSF). The insoluble fraction was sonicated and subjected to immunoprecipitation with anti-p53-Lys372me serum. […]

U2OS cells = experiment: Annexin V apoptotic staining after DNA damage; type: cell-based
Description: This was directly tested by measuring the p53-dependent apoptotic response induced by DNA damage. […] The treatment of Set9-overexpressing cells with Adr further increased the Annexin V staining. […] Furthermore, Set9-mediated regulation of cell cycle and apoptosis was p53-dependent, because in the absence of p53, transfected Set9 was unable to induce p21 gene expression in H1299 (FIG. 4) or apoptosis in Saos-2 cells in response to DNA damage.

[3] = target: T1, Set9 construct composed of residues 52-366 (UniProt Q8WTS6 52-366); experiment: cell-based or functional assay
T1 sequence (looked up): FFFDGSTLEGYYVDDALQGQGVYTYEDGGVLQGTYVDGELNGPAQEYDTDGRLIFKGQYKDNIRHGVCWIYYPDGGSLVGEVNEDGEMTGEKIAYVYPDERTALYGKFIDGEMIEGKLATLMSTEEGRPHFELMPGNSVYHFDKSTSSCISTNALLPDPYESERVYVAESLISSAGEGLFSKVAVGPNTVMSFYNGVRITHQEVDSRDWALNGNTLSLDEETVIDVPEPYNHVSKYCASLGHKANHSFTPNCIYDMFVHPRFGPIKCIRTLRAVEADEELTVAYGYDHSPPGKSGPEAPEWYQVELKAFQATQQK

[4] = system: p21 gene expression in U2OS cells; experiment: p21 gene expression by quantitative real-time PCR; type: cell-based, human; details: normalized to GAPDH
Experimental: U2OS cells were stably transfected with FLAG-Set9 wild-type, FLAG-Set9 mutant or siRNA against Set9. Non-transfected cells served as control. Cells were mock-treated, or treated with 0.3 μM of 5-fluoro-uracil (5-FU) or adriamycine (Adr) as indicated. p21 (FIG. 3A), BAX (FIG. 3B) and MDM2 (FIG. 3C) gene expression was analyzed by quantitative real-time PCR using primers specific for the coding region. Shown are the relative values normalized to GAPDH signal.
Total RNA was extracted using the TRI reagent (INVITROGEN) according to the manufacturer's instructions. First-strand complementary DNA was synthesized using READY-TO-GO You-Prime First-Strand Beads (Amersham Biosciences, Piscataway, N.J.).
Real-time PCR was performed with the DNA ENGINE OPTICON 2 System (MJ Research, Waltham, Mass.) according to the manufacturer's instructions. The primers for human p21 (Cip1/WAF1′) and GAPDH (GENBANK accession numbers NM_000389 and NP_002037, respectively) were designed using the Primer3 program. […] Fluorescence was measured at the end of the elongation phase at 79° C. Expression levels were calculated as a ratio between p21 and GAPDH signals. […]

p53 in U2OS cells = experiment: p53 Lys372 methylation and total p53 levels in U2OS cells; type: cell-based

Molecule	intracellular concentration of methylated Lys372-p53 protein [1]	levels of intracellular p53 ([1]; monoclonal p53 antibody)	amount of methylated p53 bound to the p21 promoter [2]	number of cells positively stained for Annexin V (U2OS cells)	enzymatic activity, methyltransferase assays with 3H-labeled S-adenosyl-L-methionine (AdoMet) [3]	p21 expression upon DNA damage [4]	total levels of p53 (p53 in U2OS cells)	Lys372 methylation of p53 (p53 in U2OS cells; upon Adr treatment)
COc1cccc2c1C(=O)c1c(O)c3c(c(O)c1C2=O)C[C@@](O)(C(=O)CO)C[C@@H]3O[C@H]1C[C@H](N)[C@H](O)[C@H](C)O1 [Adr, adriamycine]	increased the intracellular concentration of methylated Lys372-p53 protein	did not increase the levels of intracellular p53	increased as early as 1.5 hours after DNA damage	increased the number of cells positively stained for Annexin V	–	–	–	–
LKSKKGQSTSRHKKLMFKTY [wild-type p53 20-mer]	–	–	–	–	6 fold	–	–	–
B1	–	–	did not exhibit a significant increase in methylated p53 at the p21 promoter	–	–	impaired p21 expression upon DNA damage	decreased the total levels of p53	decreased Lys372 methylation of p53
